T1: Boi1 SH3 (BOI1_YEAST), P38041
T1 chain: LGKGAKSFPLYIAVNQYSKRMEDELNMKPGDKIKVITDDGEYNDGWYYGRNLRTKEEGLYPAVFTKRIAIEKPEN

T2: Boi2 SH3 (BOI2_YEAST), P39969
T2 chain: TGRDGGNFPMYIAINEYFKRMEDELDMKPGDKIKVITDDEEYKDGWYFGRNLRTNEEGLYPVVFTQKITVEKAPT

T3: Myo5 SH3 (MYO5_YEAST), Q04439
T3 chain: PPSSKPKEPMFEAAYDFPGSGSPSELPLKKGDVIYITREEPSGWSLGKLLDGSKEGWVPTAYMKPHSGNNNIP

T4: Rvs167 SH3 (RV167_YEAST), P39743
T4 chain: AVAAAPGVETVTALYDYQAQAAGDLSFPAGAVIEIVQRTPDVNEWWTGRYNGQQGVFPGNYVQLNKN

T5: Yfr024 SH3 (LSB3_YEAST), P43603
T5 chain: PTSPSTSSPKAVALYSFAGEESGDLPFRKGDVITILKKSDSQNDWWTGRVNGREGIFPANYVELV

T6: Yhr016c SH3 (YSC84_YEAST), P32793
T6 chain: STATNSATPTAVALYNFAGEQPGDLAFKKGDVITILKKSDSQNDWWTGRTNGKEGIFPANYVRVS


How the values were obtained:
Assay in all cases: SPOT array
[1] = target: T1, Boi1 SH3 (BOI1_YEAST), P38041
[2] = target: T2, Boi2 SH3 (BOI2_YEAST), P39969
[3] = target: T3, Myo5 SH3 (MYO5_YEAST), Q04439
[4] = target: T4, Rvs167 SH3 (RV167_YEAST), P39743
[5] = target: Sho1 SH3 (SHO1_YEAST), P40073
[6] = target: T5, Yfr024 SH3 (LSB3_YEAST), P43603
[7] = target: T6, Yhr016c SH3 (YSC84_YEAST), P32793

Sequence of Sho1 SH3 (SHO1_YEAST), P40073 (P40073 295-366): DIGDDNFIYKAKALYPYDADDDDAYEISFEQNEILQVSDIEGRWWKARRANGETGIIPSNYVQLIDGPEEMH

| normalised SPOT signal, Boehringer light units (BLU); mean over the file's lines of this peptide [1] | normalised SPOT signal, Boehringer light units (BLU); mean over the file's lines of this peptide [2] | normalised SPOT signal, Boehringer light units (BLU); mean over the file's lines of this peptide [3] | normalised SPOT signal, Boehringer light units (BLU); mean over the file's lines of this peptide [4] | normalised SPOT signal, Boehringer light units (BLU); mean over the file's lines of this peptide [5] | normalised SPOT signal, Boehringer light units (BLU); mean over the file's lines of this peptide [6] | normalised SPOT signal, Boehringer light units (BLU); mean over the file's lines of this peptide [7] | Binder |
| --- | --- | --- | --- | --- | --- | --- | --- |
| 41.8 | 14.3 | 132 | 3530 | 64100 | 4460 | 8470 | LAYERPLPDLPSTI [YKR027W 747-760] |
| 179 | 28.5 | 116000 | 69.8 | 71.2 | 47.5 | 29.7 | LAPKREAPKPPANT [YJL095W 802-815] |
| 178 | 41.3 | 268 | 72.9 | 8000 | 348 | 78.8 | LDSMKNLPLNPSKK [YDL027C 309-322] |
| 63.1 | 22.4 | 152 | 12800 | 22.2 | 2480 | 493 | LAGIRLVPVLPILL [YLR235C 75-88] |
| 4730 | 10.8 | 232 | 34.3 | 131 | 157 | 32.3 | LDVRRIYPKGPLLV [YIL113W 50-63] |
| 364 | 12.7 | 201 | 60.9 | 76.4 | 18.1 | 4.8 | LDKGKHVPSKPVSN [YKL054C 145-158] |
| 94.4 | 134 | 79.9 | 51.5 | 15200 | 48.3 | 62.8 | LASDKGLPMIPAFV [YCL040W 56-69] |
| 59.1 | 4.9 | 89.2 | 66.6 | 18.8 | 42.8 | 15.7 | LFDEKVKPQIPQLR [YML034W 45-58] |
| 37.7 | 126 | 156 | 33.4 | -0 | 36.6 | 15.3 | LDPGKNTPGLPEET [YAL048C 610-623] |
| 110 | 0 | 135 | 114 | 78.8 | 64.1 | 14.8 | LEFPKDYPLSPPKL [YMR022W 58-71] |
| 1630 | 20.4 | 154 | 207 | 78.9 | 359 | 256 | LDLSKYGPLPPSRA [YLR143W 384-397] |
| 2820 | 18.9 | 199 | 34.1 | 46.9 | 58.4 | 32.8 | LDTHKESPLRPKVR [YKR003W 305-318] |
| 477 | 18.8 | 249 | 16.5 | 76.5 | 1730 | 36 | LAAHKTKPSIPPKK [YPR171W 350-363] |

Reference: PMC314469, “Protein Interaction Networks by Proteome Peptide Scanning” (PLoS Biology, 2004)
